In publication PMC10023680 (2023) one finds Kd data, which are given here for two molecules.

What is called Kd is a measure of binding affinity in units of concentration. A high value points to weaker binding.

To fix the notation:
B1: RhoG (residues 1-184) (domain or fragment)
chain: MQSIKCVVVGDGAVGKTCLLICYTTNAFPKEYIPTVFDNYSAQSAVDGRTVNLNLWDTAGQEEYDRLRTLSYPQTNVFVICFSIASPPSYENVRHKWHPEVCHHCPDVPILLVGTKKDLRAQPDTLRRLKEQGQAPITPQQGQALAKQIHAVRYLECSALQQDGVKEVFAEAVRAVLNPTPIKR

Holding throughout (assay): SPR
(In general: Surface plasmon resonance follows binding to a sensor surface in real time, without labels.)

The target of assay [1] is GST-tagged ELMO1-RBD (residues 1-113) K20E (human, UniProt Q92556 1-113, K20E).
Assay [2] has as its target GST-tagged ELMO1-RBD (residues 1-113) Y18A (human, UniProt Q92556 1-113, Y18A).
The assay “RhoG (residues 1-184)” addresses B1.

Sequence of RhoG (residues 1-184) (P84095 1-184): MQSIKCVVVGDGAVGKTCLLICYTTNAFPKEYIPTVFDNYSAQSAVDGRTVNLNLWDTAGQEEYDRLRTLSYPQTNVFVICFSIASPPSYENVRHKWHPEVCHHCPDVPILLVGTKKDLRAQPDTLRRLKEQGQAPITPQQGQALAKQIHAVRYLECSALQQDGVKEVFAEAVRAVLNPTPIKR

As to B1, the Kd in assay [1] came to 18.2 µM; in assay [2], 19.3 µM.

B2: GST-tagged ELMO1-RBD (residues 1-113), wild-type (domain or fragment)
chain: MPPPADIVKVAIEWPGAYPKLMEIDQKKPLSAIIKEVCDGWSLANHEYFALQHADSSNFYITEKNRNEIKNGTILRLTTSPAQNAQQLHERIQSSSMDAKLEALKDLASLSRD
With B2, the Kd with RhoG (residues 1-184) was found to be 8.4 µM.
